Our source for the abundance fitness values is the Human Domainome abundance scans (Beltran et al. 2025).

The labels stand for the following.
B1: Dystrobrevin alpha, residues 235 to 294; numbered along this chain, Q9Y4J8 (parent)
chain: ENVFHPVECSYCHSESMMGFRYRCQQCHNYQLCQDCFWRGHAGGSHSNQHQMKEYTSWKS

± gives the uncertainty stated by the source.

This data set covers variants of B1. Nature of the data set: abundance fitness (aPCA) (normalised: wild type 0, dead -1); higher = more abundant; growth selection in yeast, the domain comes from the species named. The settings on record: Homo sapiens.
On to G44H, for which the abundance fitness was -0.818 ± 0.26.

Turning to G44L, the abundance fitness is -0.621 ± 0.094.

For G44P, the abundance fitness is -0.523 ± 0.16.

In the case of G44I, the abundance fitness was -0.719 ± 0.25.

Turning to G44S, the abundance fitness is -0.209 ± 0.096.

In the case of H28D, the abundance fitness was determined as 0.209 ± 0.053.

Turning to H28L, the abundance fitness is 0.002 ± 0.046.

As for H28C, the abundance fitness is -0.093 ± 0.061.

With N29L, the abundance fitness was -0.125 ± 0.047.

Take N29W: the abundance fitness is -0.183 ± 0.064.

Regarding N29P, the abundance fitness was -0.388 ± 0.063.

For N29V, the abundance fitness is -0.281 ± 0.059.

Regarding R23G, the abundance fitness is -0.158 ± 0.061.

For the variant R23H, the abundance fitness was 0.201 ± 0.11.

Regarding R23Q, the abundance fitness worked out at 0.034 ± 0.074.

With R23M, the abundance fitness was determined as 0.006 ± 0.093.

Turning to R23Y, the abundance fitness was -0.138 ± 0.11.

For the variant R23I, the abundance fitness was -0.05 ± 0.087.

On to W58K, for which the abundance fitness was found to be 0.195 ± 0.099.

Regarding W58L, the abundance fitness worked out at 0.019 ± 0.068.

With W58R, the abundance fitness amounted to 0.077 ± 0.051.

Turning to W58G, the abundance fitness was found to be 0.192 ± 0.044.

As for W58N, the abundance fitness was 0.232 ± 0.12.

For W58V, the abundance fitness is 0.224 ± 0.057.

Consider E54G, for which the abundance fitness is -0.29 ± 0.5.

For H41K, the abundance fitness was determined as 0.089 ± 0.085.

As for H41M, the abundance fitness was -0.014 ± 0.14.

In the case of H41N, the abundance fitness was 0.063 ± 0.084.

Consider H41E, for which the abundance fitness is -0.09 ± 0.078.

For the variant H41Y, the abundance fitness is -0.127 ± 0.18.

For the variant H41I, the abundance fitness was -0.284 ± 0.1.

In the case of M18D, the abundance fitness is 0.129 ± 0.072.

For M18Q, the abundance fitness amounted to 0.156 ± 0.12.

As for M18G, the abundance fitness was 0.064 ± 0.059.

Turning to M18H, the abundance fitness was 0.163 ± 0.09.

As to M18L, the abundance fitness was 0.09 ± 0.055.

Consider M18A, for which the abundance fitness was 0.199 ± 0.053.

As to M18E, the abundance fitness is 0.103 ± 0.068.

Turning to Q31K, the abundance fitness is -0.318 ± 0.13.

Take Q31C: the abundance fitness is -0.151 ± 0.15.

On to Q31Y, for which the abundance fitness was -0.034 ± 0.1.

As to Q31S, the abundance fitness was -0.007 ± 0.06.

As to Q31P, the abundance fitness was -0.536 ± 0.11.

As for Q31R, the abundance fitness is -0.318 ± 0.08.

In the case of Q31E, the abundance fitness amounted to 0.112 ± 0.072.

Q31L: the abundance fitness is -0.153 ± 0.069.

Regarding Y22S, the abundance fitness is -0.405 ± 0.085.

Regarding Y22G, the abundance fitness was -0.658 ± 0.11.

Turning to Y22C, the abundance fitness is -0.409 ± 0.15.

Regarding Y22T, the abundance fitness was -0.437 ± 0.11.

With Y22N, the abundance fitness is -0.364 ± 0.27.

For the variant Y22I, the abundance fitness is -0.337 ± 0.14.

With Y22H, the abundance fitness was -0.053 ± 0.29.

On to Y22K, for which the abundance fitness is -0.263 ± 0.095.

As for K53E, the abundance fitness was -0.029 ± 0.078.

On to K53P, for which the abundance fitness was -0.592 ± 0.13.

Regarding K53A, the abundance fitness was -0.135 ± 0.083.

For K53C, the abundance fitness was -0.137 ± 0.068.

For K53R, the abundance fitness is -0.111 ± 0.053.

For K53W, the abundance fitness is -0.459 ± 0.089.

On to K53M, for which the abundance fitness is -0.108 ± 0.092.

With C33D, the abundance fitness is -0.894 ± 0.12.

For the variant C33N, the abundance fitness was -0.592 ± 0.14.

C33Y: the abundance fitness was -0.954 ± 0.16.

As for C33G, the abundance fitness was -0.78 ± 0.081.

On to C33V, for which the abundance fitness was -0.836 ± 0.088.

With C33T, the abundance fitness was -0.944 ± 0.15.

C33F: the abundance fitness was -0.625 ± 0.15.

Consider E8L, for which the abundance fitness was -0.233 ± 0.047.

Regarding E8W, the abundance fitness is -0.39 ± 0.073.

As for E8T, the abundance fitness is -0.234 ± 0.061.

Regarding S14R, the abundance fitness was determined as 0.042 ± 0.06.

As for S14T, the abundance fitness was -0.026 ± 0.053.

As for S14V, the abundance fitness was 0.088 ± 0.061.

Turning to S14A, the abundance fitness was -0.051 ± 0.063.

As to S14M, the abundance fitness was -0.149 ± 0.057.

Consider S14C, for which the abundance fitness was -0.086 ± 0.077.

Regarding S14F, the abundance fitness was -0.622 ± 0.11.

S14Q: the abundance fitness is -0.16 ± 0.097.

As to S10Y, the abundance fitness was -0.343 ± 0.071.

As for S10C, the abundance fitness was -0.018 ± 0.06.

Turning to S10G, the abundance fitness is -0.443 ± 0.072.

For S10N, the abundance fitness is -0.183 ± 0.11.

With S10K, the abundance fitness is -0.592 ± 0.12.

In the case of S10P, the abundance fitness is -0.421 ± 0.11.

On to S10F, for which the abundance fitness is -0.351 ± 0.062.

Take S10M: the abundance fitness was -0.298 ± 0.1.

As for S10E, the abundance fitness is -0.394 ± 0.11.

Regarding H5I, the abundance fitness came out at 0.321 ± 0.1.

With H5A, the abundance fitness was -0.195 ± 0.066.

For H5M, the abundance fitness was -0.114 ± 0.06.

For G40R, the abundance fitness was -0.206 ± 0.065.

As for G40L, the abundance fitness is -0.384 ± 0.056.

As to G40E, the abundance fitness was -0.284 ± 0.092.

On to G40Q, for which the abundance fitness was -0.281 ± 0.12.

With N48Q, the abundance fitness is -0.084 ± 0.12.

Turning to N48R, the abundance fitness was -0.182 ± 0.055.

With N48G, the abundance fitness is -0.045 ± 0.052.

On to N48H, for which the abundance fitness was -0.174 ± 0.083.

Turning to G19T, the abundance fitness was -0.147 ± 0.084.

For G19S, the abundance fitness came out at 0.089 ± 0.051.

G19M: the abundance fitness was -0.167 ± 0.075.

For the variant G19L, the abundance fitness is -0.134 ± 0.044.

Regarding G19N, the abundance fitness is -0.027 ± 0.085.

In the case of G43V, the abundance fitness is -0.352 ± 0.073.

As to G43C, the abundance fitness is -0.034 ± 0.081.

With C12T, the abundance fitness was -0.868 ± 0.12.

C12W: the abundance fitness is -1.27 ± 0.18.

For the variant C12S, the abundance fitness is -1.17 ± 0.13.

As for C12N, the abundance fitness was -0.746 ± 0.22.

For the variant C12R, the abundance fitness is -0.768 ± 0.072.

With C12F, the abundance fitness is -1.23 ± 0.17.

Consider C12I, for which the abundance fitness was -1.1 ± 0.21.

In the case of R21G, the abundance fitness was -0.15 ± 0.09.

With R21Y, the abundance fitness was -0.394 ± 0.45.

R21C: the abundance fitness is -0.092 ± 0.16.

Regarding R21W, the abundance fitness was -0.02 ± 0.28.

Take R21E: the abundance fitness is -0.07 ± 0.23.

For R21K, the abundance fitness was 0.047 ± 0.22.

For the variant R21M, the abundance fitness stood at 0.063 ± 0.11.

Consider R21L, for which the abundance fitness was determined as 0.058 ± 0.11.

As to R21F, the abundance fitness is -0.188 ± 0.21.

Regarding C36F, the abundance fitness is -0.994 ± 0.29.

With C36G, the abundance fitness was -0.596 ± 0.1.

For C36V, the abundance fitness is -0.873 ± 0.19.

For the variant C36Q, the abundance fitness is -0.723 ± 0.26.

As for C36W, the abundance fitness is -0.94 ± 0.22.

As to Q51P, the abundance fitness was -0.091 ± 0.086.

As to Q51N, the abundance fitness was -0.095 ± 0.086.

Regarding Q51M, the abundance fitness was -0.334 ± 0.11.

Consider Q51G, for which the abundance fitness is -0.234 ± 0.074.

In the case of Q51Y, the abundance fitness came out at 0.077 ± 0.13.

Take Q51T: the abundance fitness turned out to be 0.042 ± 0.059.

Consider P6F, for which the abundance fitness is -0.091 ± 0.072.

Regarding P6G, the abundance fitness was -0.063 ± 0.042.

For P6C, the abundance fitness was -0.137 ± 0.06.

Turning to P6I, the abundance fitness was -0.039 ± 0.078.

Regarding P6Q, the abundance fitness was -0.191 ± 0.075.

As for L32V, the abundance fitness was -0.102 ± 0.12.

Take F20G: the abundance fitness was 0.163 ± 0.046.

For F20D, the abundance fitness came to 0.106 ± 0.071.

Regarding F20C, the abundance fitness amounted to 0.14 ± 0.069.

As for F20S, the abundance fitness worked out at 0.237 ± 0.038.

Consider C9Y, for which the abundance fitness is -1.26 ± 0.18.

As to C9Q, the abundance fitness was -1.05 ± 0.12.

In the case of C9M, the abundance fitness was -1.31 ± 0.42.

Consider C9K, for which the abundance fitness was -0.901 ± 0.21.

For the variant C9D, the abundance fitness is -0.904 ± 0.13.

As to C9F, the abundance fitness was -1.25 ± 0.3.

On to Y30C, for which the abundance fitness is -0.554 ± 0.22.

With Y30G, the abundance fitness was -0.553 ± 0.043.

Take Y30W: the abundance fitness is -0.458 ± 0.072.

Turning to Y30F, the abundance fitness was -0.183 ± 0.1.

Y30V: the abundance fitness was -0.206 ± 0.059.

Take S45E: the abundance fitness stood at 0.065 ± 0.067.

As to S45P, the abundance fitness is -0.043 ± 0.083.

As for H13E, the abundance fitness is -0.23 ± 0.093.

Consider H13K, for which the abundance fitness was -0.027 ± 0.068.

As for H13F, the abundance fitness was -0.243 ± 0.11.

With H13G, the abundance fitness was -0.027 ± 0.048.

Turning to H13L, the abundance fitness is -0.176 ± 0.045.

Turning to Q26F, the abundance fitness was -0.283 ± 0.2.

As to Q26R, the abundance fitness is -0.232 ± 0.05.

In the case of Q26T, the abundance fitness turned out to be 0.012 ± 0.088.

Q26E: the abundance fitness is -0.058 ± 0.083.

With Q26W, the abundance fitness is -0.498 ± 0.1.

As to Q26D, the abundance fitness stood at 0.341 ± 0.085.
